Patent US11059903B2, “Anti-PSMA antibodies, uses thereof and conjugates thereof” (Polytherics Limited, priority 2016, dated 2021)

Assay: Heat stress test, aggregation analysed by SEC
Assay type: physicochemical
Conditions: for Ab in aggregated form (%) / Ab in native conformation (%): post stress test: 0.5 mg/mL in PBS, 75° C. for 30 min, SEC % area
Procedure: Antibody samples (0.5 mg/mL in PBS) were incubated at 75° C. for 30 min followed by incubation in an ice-bath for 5 min prior to being analysed for their extent of aggregation. Analysis of antibody solutions was carried out by Size Exclusion Chromatography (SEC) and by turbidity measurements.
SEC was performed using a TOSOH Bioscience TSK gel Super SW 3000 column. UV absorbance at 280 nm was monitored during an isocratic elution with a 0.2 M Potassium phosphate buffer, pH 6.8 (0.2 M potassium chloride and 15% isopropanol). The elution times and number of peaks indicate whether the sample contains aggregated, degraded or native antibody. The % area under the curve (Abs280) was used to determine the quantity of each species present in the SEC analysis.

B1: AB-09: Prior art anti-PSMA antibody, heavy chain SEQ ID No 15, light chain SEQ ID No 16 (antibody, V domains shown)
VH: MELGLRWVLLVALLRGVQCQVQLVESGGGVVQPGRSLRLSCAASGFTFSNYVMHWVRQAPGKGLEWVAIIWYDGSNKYYADSVKGRFTISRDNSKNTLYLQMNSLRAEDTAVYYCAGGYNWNYEYHYYGMDVWGQGTTVTVSS
VL: MRVPAQLLGLLLLCFPGARCDIQMTQSPSSLSASVGDRVTITCRASQGITNYLAWFQQKPGKAPKSLIYAASSLQSGVPSKFSGSGSGTDFSLTISSLQPEDFATYYCQQYNSYPITFGQGTRLEIK
Stability compared with AB-02 to AB-06 antibodies (heat stress test, in words): less stable
Ab in aggregated form (%): 100%
Ab in native conformation (%): 0%

B2: AB-03: Humanised anti-PSMA antibody, heavy chain SEQ ID No 7, light chain SEQ ID No 8 (antibody, V domains shown)
VH: EVQLVQSGAEVKKPGASVKVSCKASGYTFTEYTIHWVRQAPGKGLEWIGNINPNNGGTTYNQKFEDRVTITVDKSTSTAYMELSSLRSEDTAVYYCAGGWTFDYWGQGTTVTVSS
VL: DIQMTQSPSTLSASVGDRVTITCKASQDVGTAVDWYQQKPGQAPKLLIYWASTRHTGVPDRFSGSGSGTDFTLTISRLQPEDFAVYYCQQFTRYPLTFGQGTKVDIK
Ab in aggregated form (%): 64%
Ab in native conformation (%): 36%

B3: AB-04: Humanised anti-PSMA antibody, heavy chain SEQ ID No 9, light chain SEQ ID No 8 (antibody, V domains shown)
VH: EVQLVQSGAEVKKPGASVKVSCKASGYTFTEYTIHWVRQAPGKGLEWIGNINPNNGGTTYNQKFEDRVTITVDKSTSTAYMELSSLRSEDTAVYYCAGAWTMDYWGQGTTVTVSS
VL: DIQMTQSPSTLSASVGDRVTITCKASQDVGTAVDWYQQKPGQAPKLLIYWASTRHTGVPDRFSGSGSGTDFTLTISRLQPEDFAVYYCQQFTRYPLTFGQGTKVDIK
Ab in aggregated form (%): 73%
Ab in native conformation (%): 27%

B4: AB-05: Humanised anti-PSMA antibody, heavy chain SEQ ID No 5, light chain SEQ ID No 10 (antibody, V domains shown)
VH: EVQLVQSGAEVKKPGASVKVSCKASGYTFTEYTIHWVRQAPGKGLEWIGNINPNNGGTTYNQKFEDRVTITVDKSTSTAYMELSSLRSEDTAVYYCAAYWLFDYWGQGTTVTVSS
VL: DIQMTQSPSTLSASVGDRVTITCKASQDVGTAVDWYQQKPGQAPKLLIYWASTRHTGVPDRFSGSGSGTDFTLTISRLQPEDFAVYYCQQYNAYSLTFGQGTKVDIK
Ab in aggregated form (%): 98%
Ab in native conformation (%): 2%
